# Experimental data taken from patent US20140234868A1, “USE FOR GLYCOLIPOPROTEIN GINTONIN, ISOLATED AND IDENTIFIED FROM GINSENG, AS A NATURAL MEDICAL-PLANT DERIVED LIGAND” (KONKUK UNIVERSITY INDUSTRIAL COOPERATION CORP., priority 2011, published 2014).
# B1: gintonin: ginseng-derived glycolipoprotein; structural protein of ginseng major latex-like protein (MLP151) and ribonuclease-like storage proteins; crude gintonin used in tests (protein)
# chain 1: MGLTGKLICQTGIKSDGDVFHELFGTRPHHVPNITPANIQGCDLHEGEFGKVGSVVIWNYSIDGNAMIAKEEIVAIDEEDKSVTFKVVEGHLFEEFKSIVFSVHVDTKGEDNLVTWSIDYEKLNESVKDPTSYLDFLLSVTRDIEAHHLPK
# chain 2: RSDYPWAMFALRLQWPAGFCEVNNACDTKSLLNTFTIHGLYPYNAKGTPALYCDGTAFDVNSVSDFLAEMHLAWPSHETNTEDIQFWEHEWKKHGRCSEALLKQTDYFRTALAFRKAFDIVGLLNQEGIYPNNDLYRPKMIKEAIKKHLNAVPEIDFTKNENSEYVLTDINVCVNQQATRFVDCPTDDATDDYRLKFVRLPSKMKFADPRTNSII
# Experiments:
# [1] = system: LPA receptor-null B103 cells (empty vector); assay: Intracellular free Ca2+ (Fura-2AM) in B103 cells transfected with empty vector; format: cell-based, rat; conditions: gintonin 1 μg/ml; empty vector B103 cells
# Excerpt: (§1) LPA family receptors are endogenous to cells of most organs. B103 rat neuroblastoma cells, known as LPA receptor-null cells (Valentine et al., Biochim Biophys Acta 1780. 597-605) were transiently transfected with a plasmid (vector) carrying one of genes coding for LPA1(edg-2), LPA2(edg-4), LPA3(edg-7), LPA4, LPA5 and LPA6 receptors or a plasmid carrying none of them (empty vector). Two or three days after transfection, the cells are suspended, and made permeable. Then, the permeable cells are treated with Fura-2AM, a fluorescent dye binding to calcium, and then with gintonin, followed by spectrofluorephotometry to examine whether gintonin induces an increase in intracellular free Ca^2+ level. […]
# Briefly, Fura 2-AM loaded cells were diluted with an experimental medium to a final density of 2˜4×10^6 cells/mL, and transferred to polystyrene cuvettes (Elkay Ultra-VU). […] Emission was detected at 510 nm Excitation and emission slit widths were 5 nm Background calibration was performed as described by Jørgensen et al. […]
# [2] = target: LPA5 receptor (Homo sapiens, UniProt Q9H1C0); assay: Intracellular free Ca2+ (Fura-2AM) in LPA5-expressing B103 cells; format: cell-based; parameters: host or cells: B103 rat neuroblastoma cells
# LPA5 receptor, sequence (Q9H1C0 whole entry): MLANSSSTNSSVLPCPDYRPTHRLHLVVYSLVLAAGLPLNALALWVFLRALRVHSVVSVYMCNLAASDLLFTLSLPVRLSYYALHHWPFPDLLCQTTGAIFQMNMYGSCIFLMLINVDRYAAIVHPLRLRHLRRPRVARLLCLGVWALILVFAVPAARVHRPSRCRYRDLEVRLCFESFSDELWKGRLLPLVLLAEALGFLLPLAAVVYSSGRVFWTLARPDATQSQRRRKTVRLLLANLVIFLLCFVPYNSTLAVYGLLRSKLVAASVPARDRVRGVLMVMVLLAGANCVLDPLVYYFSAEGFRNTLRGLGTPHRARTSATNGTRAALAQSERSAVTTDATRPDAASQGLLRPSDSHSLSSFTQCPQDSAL
# Excerpt: as §1
molecule,measurement,setting,value
B1,increase in intracellular calcium level,[1],22.7 ± 4.1 nM
same,EC50,"[2]; LPA5 receptor, B103 cells, read-out: EC50, LPA receptor-mediated intracellular calcium increase",0.046 ± 0.003 nM
same,increase in intracellular calcium level,"[2]; gintonin 1 μg/ml, LPA5-expressing B103 cells",297.5 ± 21.8 µM
